Assay results as given in patent US20220395553A1 (COHBAR, published 2022).
Square brackets hold non-standard residues; d marks the D form. Ends that are not written are not given here.

Columns and labels:
[1] = target: T1, SNAP tagged-CXC4 receptor labeled with terbium (Tag-lite CXCR4 cells, HEK293) (UniProt P61073 1-352, SNAP tag labeled with terbium fluorescent dye); test: HTRF competition on Tag-lite CXCR4 HEK293 cells; competitor labelled CXCL12
T1 construct: whole, on cells; Bought frozen cells (PerkinElmer-CisBio), HEK293 transiently expressing the receptor; also called terbium labeled CXCR receptor
T1 sequence (P61073 whole entry): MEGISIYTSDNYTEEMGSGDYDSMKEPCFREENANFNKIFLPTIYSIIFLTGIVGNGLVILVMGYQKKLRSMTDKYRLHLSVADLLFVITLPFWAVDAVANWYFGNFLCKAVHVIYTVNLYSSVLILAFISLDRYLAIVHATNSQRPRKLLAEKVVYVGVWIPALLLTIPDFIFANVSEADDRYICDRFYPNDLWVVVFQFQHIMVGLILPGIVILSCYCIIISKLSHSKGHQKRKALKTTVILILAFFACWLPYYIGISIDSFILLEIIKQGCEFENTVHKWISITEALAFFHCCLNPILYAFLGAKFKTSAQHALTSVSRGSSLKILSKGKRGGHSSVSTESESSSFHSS
Description: Peptides were initially prepared as 1 mM stock in H₂O and tested at a final concentration of 400 nM. Following the manufacture's protocol, a frozen aliquot of Tag-lite CXCR4 cells was thawed and immediately seeded onto 384-well plates in TLB. Immediately following the addition of cells, 400 nM peptide (final concentration) in TLB was added to the appropriate well. […] The plates were covered in aluminum foil and left at room temperature for 3 hours. Following the 3 hour incubation period, the plates were removed from the incubator and fluorescence measured using a Cytation 1 plate reader using a HTRF filter cube ([…]; BioTek; Winooski, Vt.).

[2] = target: ProLink tagged human CXCR4 (C2C12 CXCR4 β-Arrestin cell line) (human, UniProt P61073 1-352); test: cell-based or functional assay
Chain of ProLink tagged human CXCR4 (C2C12 CXCR4 β-Arrestin cell line) (P61073 whole entry): as above

[3] = target: T2, CXCR4 on cultured U937 and Jurkat cells (human, UniProt P61073 1-352); test: cell-based or functional assay
T2 sequence (P61073 whole entry): as above

[4] = target: T1, SNAP tagged-CXC4 receptor labeled with …; test: HTRF competition on Tag-lite CXCR4 HEK293 cells; competitor labelled CXCL12; remark: listed apart in the source
Description: Peptides were initially prepared as 1 mM stock in H₂O. […] Following the manufacture's protocol, a frozen aliquot of Tag-lite CXCR4 cells was thawed and immediately seeded onto 384-well plates in TLB. […] The plates were covered in aluminum foil and left at room temperature for 3 hours. Following the 3 hour incubation period, the plates were removed from the incubator and fluorescence measured using a Cytation 1 plate reader using a HTRF filter cube ([…]; BioTek; Winooski, Vt.).

[5] = target: T2, CXCR4 on cultured U937 and Jurkat cells; test: cell-based or functional assay; remark: listed apart in the source

B1: SEQ ID NO: 76 (peptide)
peptide: LERYHHS[dA]RTSLRPYTK
- Percent Inhibition of CXCR4/CXCL12 Binding (400 nM peptide) [1]: 75%
- IC50 for Inhibition of CXCR4 Activation (β-Arrestin recruitment) [2]: 6 nM
- Percent Inhibition of CXCR4/CXCL12 Induced p-MEK (100 nM Test Article) [3]: 5%
- Percent Inhibition of CXCR4/CXCL12 Induced p-MEK (1 µM Test Article) [3]: 44%

B2: SEQ ID NO: 35 (peptide)
peptide: [dA]ERYHHS[dA]RSSLRPYTK
- Percent Inhibition of CXCR4/CXCL12 Binding (400 nM peptide) [1]: -13%
- IC50 for Inhibition of CXCR4 Activation (β-Arrestin recruitment) [2]: 291 nM
- IC50 [4]: 6310 nM
- Percent Inhibition of CXCR4/CXCL12 Induced p-MEK (100 nM Test Article) [3]: -7%
- Percent Inhibition of CXCR4/CXCL12 Induced p-MEK (1 µM Test Article) [3]: -6%

B3: SEQ ID NO: 72 (peptide)
peptide: LRRYHHSVRSSLRPYSK
- Percent Inhibition of CXCR4/CXCL12 Binding (400 nM peptide) [1]: 6%
- IC50 for Inhibition of CXCR4 Activation (β-Arrestin recruitment) [2]: 5 nM
- IC50 [4]: 589 nM
- Percent Inhibition of CXCR4/CXCL12 Induced p-MEK (100 nM Test Article) [3]: 8%
- Percent Inhibition of CXCR4/CXCL12 Induced p-MEK (1 µM Test Article) [3]: 86%

B4: SEQ ID NO: 80 (peptide)
peptide: LERYHHSVRSSLRGYTK
- Percent Inhibition of CXCR4/CXCL12 Binding (400 nM peptide) [1]: 88%
- IC50 for Inhibition of CXCR4 Activation (β-Arrestin recruitment) [2]: 4 nM
- IC50 [4]: 6 nM
- Percent Inhibition of CXCL12 Mediated Migration (1.1 µM Test Article; Jurkat cells) [5]: 71%
- Percent Inhibition of CXCR4/CXCL12 Induced p-MEK (100 nM Test Article) [3]: 52%
- Percent Inhibition of CXCR4/CXCL12 Induced p-MEK (1 µM Test Article) [3]: 96%

B5: SEQ ID NO: 61 (peptide)
peptide: LERYHHS[dA]RSSLRPFTK
- Percent Inhibition of CXCR4/CXCL12 Binding (400 nM peptide) [1]: 54%
- IC50 for Inhibition of CXCR4 Activation (β-Arrestin recruitment) [2]: 8 nM
- Percent Inhibition of CXCR4/CXCL12 Induced p-MEK (100 nM Test Article) [3]: 15%
- Percent Inhibition of CXCR4/CXCL12 Induced p-MEK (1 µM Test Article) [3]: 46%

B6: SEQ ID NO: 67 (peptide)
peptide: LRRYHHSVRSSLDPYTK
- Percent Inhibition of CXCR4/CXCL12 Binding (400 nM peptide) [1]: 3%
- IC50 for Inhibition of CXCR4 Activation (β-Arrestin recruitment) [2]: 14 nM
- IC50 [4]: 380 nM
- Percent Inhibition of CXCR4/CXCL12 Induced p-MEK (100 nM Test Article) [3]: -8%
- Percent Inhibition of CXCR4/CXCL12 Induced p-MEK (1 µM Test Article) [3]: 42%

B7: SEQ ID NO: 66 (peptide)
peptide: LRRYHHSVDSSLRPYTK
- Percent Inhibition of CXCR4/CXCL12 Binding (400 nM peptide) [1]: -5%
- IC50 for Inhibition of CXCR4 Activation (β-Arrestin recruitment) [2]: 27 nM
- IC50 [4]: 563 nM
- Percent Inhibition of CXCR4/CXCL12 Induced p-MEK (100 nM Test Article) [3]: -7%
- Percent Inhibition of CXCR4/CXCL12 Induced p-MEK (1 µM Test Article) [3]: 13%

B8: SEQ ID NO: 59 (peptide)
peptide: LRRYHHSVRSSLRPFTK
- Percent Inhibition of CXCR4/CXCL12 Binding (400 nM peptide) [1]: -3%
- IC50 for Inhibition of CXCR4 Activation (β-Arrestin recruitment) [2]: 3 nM
- IC50 [4]: 382 nM
- Percent Inhibition of CXCR4/CXCL12 Induced p-MEK (100 nM Test Article) [3]: 43%
- Percent Inhibition of CXCR4/CXCL12 Induced p-MEK (1 µM Test Article) [3]: 93%

B9: SEQ ID NO: 36 (peptide)
peptide: LRDYHHSVRSSLRPYTK
- Percent Inhibition of CXCR4/CXCL12 Binding (400 nM peptide) [1]: -11%
- IC50 for Inhibition of CXCR4 Activation (β-Arrestin recruitment) [2]: > 1000 nM
- IC50 [4]: 5990 nM
- Percent Inhibition of CXCR4/CXCL12 Induced p-MEK (100 nM Test Article) [3]: 22%
- Percent Inhibition of CXCR4/CXCL12 Induced p-MEK (1 µM Test Article) [3]: -5%

B10: SEQ ID NO: 53 (peptide)
peptide: LRRFHHSVRSSLRPYTK
- Percent Inhibition of CXCR4/CXCL12 Binding (400 nM peptide) [1]: 5%
- IC50 for Inhibition of CXCR4 Activation (β-Arrestin recruitment) [2]: 3 nM
- IC50 [4]: 108 nM
- Percent Inhibition of CXCL12 Mediated Migration (1.1 µM Test Article; Jurkat cells) [5]: 59%
- Percent Inhibition of CXCR4/CXCL12 Induced p-MEK (100 nM Test Article) [3]: 62%
- Percent Inhibition of CXCR4/CXCL12 Induced p-MEK (1 µM Test Article) [3]: 98%

B11: SEQ ID NO: 71 (peptide)
peptide: LRRYHHSVRSTLRPYTK
- Percent Inhibition of CXCR4/CXCL12 Binding (400 nM peptide) [1]: 29%
- IC50 for Inhibition of CXCR4 Activation (β-Arrestin recruitment) [2]: 3 nM
- IC50 [4]: 133 nM
- Percent Inhibition of CXCR4/CXCL12 Induced p-MEK (100 nM Test Article) [3]: 56%
- Percent Inhibition of CXCR4/CXCL12 Induced p-MEK (1 µM Test Article) [3]: 94%

B12: SEQ ID NO: 33 (peptide)
peptide: [dA]RRYHHSVRSSLRPYTK
- Percent Inhibition of CXCR4/CXCL12 Binding (400 nM peptide) [1]: 77%
- IC50 for Inhibition of CXCR4 Activation (β-Arrestin recruitment) [2]: 7 nM
- IC50 [4]: 42 nM
- Percent Inhibition of CXCR4/CXCL12 Induced p-MEK (100 nM Test Article) [3]: 7%
- Percent Inhibition of CXCR4/CXCL12 Induced p-MEK (1 µM Test Article) [3]: 42%

B13: SEQ ID NO: 78 (peptide)
peptide: LERYHHS[dA]RSSLRPYSK
- Percent Inhibition of CXCR4/CXCL12 Binding (400 nM peptide) [1]: 72%
- IC50 for Inhibition of CXCR4 Activation (β-Arrestin recruitment) [2]: 12 nM
- Percent Inhibition of CXCR4/CXCL12 Induced p-MEK (100 nM Test Article) [3]: 29%
- Percent Inhibition of CXCR4/CXCL12 Induced p-MEK (1 µM Test Article) [3]: 46%

B14: SEQ ID NO: 81 (peptide)
peptide: LERYHHS[dA]RSSLRGYTK
- Percent Inhibition of CXCR4/CXCL12 Binding (400 nM peptide) [1]: 81%
- IC50 for Inhibition of CXCR4 Activation (β-Arrestin recruitment) [2]: 3 nM
- IC50 [4]: 23 nM
- Percent Inhibition of CXCR4/CXCL12 Induced p-MEK (100 nM Test Article) [3]: -16%
- Percent Inhibition of CXCR4/CXCL12 Induced p-MEK (1 µM Test Article) [3]: 20%

B15: SEQ ID NO: 34 (peptide)
peptide: [dA]ERYHHSVRSSLRPYTK
- Percent Inhibition of CXCR4/CXCL12 Binding (400 nM peptide) [1]: -17%
- IC50 for Inhibition of CXCR4 Activation (β-Arrestin recruitment) [2]: > 1000 nM
- IC50 [4]: 4540 nM
- Percent Inhibition of CXCR4/CXCL12 Induced p-MEK (100 nM Test Article) [3]: -1%
- Percent Inhibition of CXCR4/CXCL12 Induced p-MEK (1 µM Test Article) [3]: 2%

B16: SEQ ID NO: 55 (peptide)
peptide: LERFHHS[dA]RSSLRPYTK
- Percent Inhibition of CXCR4/CXCL12 Binding (400 nM peptide) [1]: 56%
- IC50 for Inhibition of CXCR4 Activation (β-Arrestin recruitment) [2]: 4 nM
- IC50 [4]: 31 nM
- Percent Inhibition of CXCR4/CXCL12 Induced p-MEK (100 nM Test Article) [3]: 16%
- Percent Inhibition of CXCR4/CXCL12 Induced p-MEK (1 µM Test Article) [3]: 72%

B17: SEQ ID NO: 38 (peptide)
peptide: LRRYHHTVRSSLRPYTK
- Percent Inhibition of CXCR4/CXCL12 Binding (400 nM peptide) [1]: 12%
- IC50 for Inhibition of CXCR4 Activation (β-Arrestin recruitment) [2]: 3 nM
- IC50 [4]: 175 nM
- Percent Inhibition of CXCR4/CXCL12 Induced p-MEK (100 nM Test Article) [3]: 51%
- Percent Inhibition of CXCR4/CXCL12 Induced p-MEK (1 µM Test Article) [3]: 96%

B18: SEQ ID NO: 57 (peptide)
peptide: LERYHHS[dA]RSSLRPYTK-NH2
modifications: N-terminus assumed
SMILES: CC(C)C[C@H](NC(=O)[C@H](CO)NC(=O)[C@H](CO)NC(=O)[C@H](CCCNC(=N)N)NC(=O)[C@@H](C)NC(=O)[C@H](CO)NC(=O)[C@H](Cc1c[nH]cn1)NC(=O)[C@H](Cc1c[nH]cn1)NC(=O)[C@H](Cc1ccc(O)cc1)NC(=O)[C@H](CCCNC(=N)N)NC(=O)[C@H](CCC(=O)O)NC(=O)[C@@H](N)CC(C)C)C(=O)N[C@@H](CCCNC(=N)N)C(=O)N1CCC[C@H]1C(=O)N[C@@H](Cc1ccc(O)cc1)C(=O)N[C@H](C(=O)N[C@@H](CCCCN)C(N)=O)[C@@H](C)O
- IC50 for Inhibition of CXCR4 Activation (β-Arrestin recruitment) [2]: 33 nM
- Percent Inhibition of CXCL12 Mediated Migration (1.1 µM Test Article; Jurkat cells) [5]: 30%
- Percent Inhibition of CXCR4/CXCL12 Induced p-MEK (100 nM Test Article) [3]: 10%
- Percent Inhibition of CXCR4/CXCL12 Induced p-MEK (1 µM Test Article) [3]: 72%

B19: SEQ ID NO: 43 (peptide)
peptide: LERYNHS[dA]RSSLRPYTK
- Percent Inhibition of CXCR4/CXCL12 Binding (400 nM peptide) [1]: 53%
- IC50 for Inhibition of CXCR4 Activation (β-Arrestin recruitment) [2]: 14 nM
- Percent Inhibition of CXCR4/CXCL12 Induced p-MEK (100 nM Test Article) [3]: 5%
- Percent Inhibition of CXCR4/CXCL12 Induced p-MEK (1 µM Test Article) [3]: 40%

B20: SEQ ID NO: 77 (peptide)
peptide: LERYHHS[dA]RSTLRPYTK
- Percent Inhibition of CXCR4/CXCL12 Binding (400 nM peptide) [1]: 77%
- IC50 for Inhibition of CXCR4 Activation (β-Arrestin recruitment) [2]: 4 nM
- Percent Inhibition of CXCR4/CXCL12 Induced p-MEK (100 nM Test Article) [3]: 7%
- Percent Inhibition of CXCR4/CXCL12 Induced p-MEK (1 µM Test Article) [3]: 68%
